Changes are numbered by the printed parent chain. Blank lines part the entries; values can stand above or below the binder they belong to.
Columns and labels:
[1] = molecular target: T1, recombinant human factor B (human, UniProt P00751 26-764, biotinylated (EZ-link) in the Octet assay only; sites not stated); experiment: BLI (ForteBio Octet), biotinylated human factor B on neutravidin sensors, Fab' at 1e-7 M; KD = Kdissoc/Kassoc
T1 construct: also called purified factor B protein
Procedure: (§1) Binding kinetics of the Fab′ fragments were analyzed using a FortéBio® Octet® biosensor (FortéBio, Inc., Menlo Park, Calif.). Recombinant human factor B was biotinylated with the EZ-link biotinylation system (Pierce Biotechnology, Rockford, Ill.) according to the manufacturer's instructions. The antigen was then coupled to neutravidin-coated sensors (FortéBio, Inc., Menlo Park, Calif.) according to the manufacturer's instructions. Fab′ binding was then monitored in real time using bio-layer interferometry analysis and software provided by the manufacturer. Antigen binding affinities were calculated for the tested Fab′ fragments based on the measured association (“Kassoc”) and dissociation (“Kdissoc”) constants. Preferably humaneered antibodies or antibody fragments with equilibrium dissociation constants the same or […] than that of the reference antibody (i.e., mAb 1379) or antibody fragment (i.e., TA10).
(§2) Fully humaneered Fab′ fragments were isolated by colony lift binding assays and confirmed as factor B binders by ELISA. Humaneered Fab′ fragments showing strong positive signals by ELISA were purified and further characterized in comparison to the reference Fab′ fragment TA10, which has murine V-region sequences from mAb 1379. Kinetics of Fab′ fragment binding to recombinant human factor B were analyzed with the FortéBio® Octet® system by bio-layer interferometry, providing real time label-free monitoring of protein-protein interactions. Measured association (Kassoc) and dissociation (Kdissoc) constants, and calculated equilibrium dissociation constants (KD=Kdissoc/Kassoc) (i.e., binding affinity), are shown in Table 1.

[2] = molecular target: T1, recombinant human factor B; experiment: BLI (ForteBio Octet), biotinylated human factor B on neutravidin sensors, Fab' at 1e-7 M
Procedure: as §1, §2

[3] = molecular target: T1, recombinant human factor B; experiment: dilution ELISA, factor B coated at 50 ng/well [upper panel]
[4] = molecular target: T1, recombinant human factor B; experiment: dilution ELISA, factor B coated at 25 ng/well [upper panel]
[5] = molecular target: T1, recombinant human factor B; experiment: dilution ELISA, factor B coated at 100 ng/well [lower panel]
Procedure: (§3) Next, the ability of the cloned VH and Vκ sequences to bind factor B was assayed. The cloned VH- and Vκ-regions were expressed in bacteria as Fab′ fragments, purified, and tested for binding to factor B in a dilution ELISA. FIG. 4 compares factor B binding of the cloned Fab′ TA003 to that of a Fab′ derived from mAb1379. As expected, both the cloned Fab′ and murine Fab produced binding curves that were dependent on both antibody and antigen concentration.

[6] = molecular target: T1, recombinant human factor B; experiment: dilution ELISA, factor B coated at 50 ng/well [lower panel]
Procedure: as §3

[7] = molecular target: T1, recombinant human factor B; experiment: dilution ELISA, factor B coated at 25 ng/well [lower panel]
Procedure: as §3

T1 sequence (P00751 26-764): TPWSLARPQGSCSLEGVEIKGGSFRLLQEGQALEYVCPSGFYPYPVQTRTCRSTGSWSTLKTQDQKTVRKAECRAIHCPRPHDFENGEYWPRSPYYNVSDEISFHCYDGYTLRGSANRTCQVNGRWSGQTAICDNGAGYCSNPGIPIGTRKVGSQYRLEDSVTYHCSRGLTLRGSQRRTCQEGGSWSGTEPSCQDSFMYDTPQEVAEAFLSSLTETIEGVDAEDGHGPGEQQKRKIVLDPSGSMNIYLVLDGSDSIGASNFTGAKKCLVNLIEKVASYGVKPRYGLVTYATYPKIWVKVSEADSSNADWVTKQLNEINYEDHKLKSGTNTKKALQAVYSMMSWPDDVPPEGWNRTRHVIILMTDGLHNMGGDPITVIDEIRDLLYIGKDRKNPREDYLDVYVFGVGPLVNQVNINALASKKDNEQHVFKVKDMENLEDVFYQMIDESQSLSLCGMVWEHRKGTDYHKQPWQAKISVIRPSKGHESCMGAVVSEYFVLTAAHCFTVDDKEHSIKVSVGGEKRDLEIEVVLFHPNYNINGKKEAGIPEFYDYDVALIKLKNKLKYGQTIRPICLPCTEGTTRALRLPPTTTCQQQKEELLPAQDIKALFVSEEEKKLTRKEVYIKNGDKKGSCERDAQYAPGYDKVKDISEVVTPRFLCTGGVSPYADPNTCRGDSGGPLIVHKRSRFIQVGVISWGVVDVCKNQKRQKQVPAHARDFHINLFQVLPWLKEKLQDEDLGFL

Kd [1]: 5.4 nM
koff [2]: 0.00437 s⁻¹
kon [2]: 810000 M⁻¹ s⁻¹
B2: TA102-4 Fab' (Fab, V domains shown)
VH: QVQLVQSGAEVKKPGASVKVSCKASGYSFTDYYMTWVRQAPGQGLEWMGWINPNSGGTKYAQKFQGRVTMTRDTSISTAYMELSRLRSDDTAVYYCARGYYANSAWFAYWGQGTLVTVSS
VL: DIVMTQSPDSLAVSLGERATINCKSSQSVLNSRNKKNYLAWYQQKPGQPPKLLIYWASTRESGVPDRFSGSGSGTDFTLTISSLQAEDVAVYYCKQVYNLPWTFGQGTKLEIK
notes: Humaneered Fab' expressed in E. coli

Kd [1]: 4.53 nM
koff [2]: 0.00233 s⁻¹
B3: TA101-1 Fab' (Fab, V domains shown)
VH: B2 VH
VL: B2 VL with V29L, R33S, N34T, K35S
notes: as for B2

EC50 (read off the curve) [3]: ~20 nM
EC50 (read off the curve) [4]: ~40 nM
B4: cloned Fab' TA003 (Fab, V domains shown)
VH: EVQLQQSGPELVKPGASVKIPCKASGYTFTDYNMDWVKQSHGKSLEWIGDINPNNGGTIYNQKFKGKATLTVDKSSSTAYMELRSLTSEDTAVYYCARGYYSNSAWFAYWGQGTLVTVSA
VL: DIVMSQSPSSLAVSAGEKVTMSCKSSQSLLNSRTRKNYLAWYQQKPGQSPKLLIYWASTRESGVPDRFTGSGSGTDFTLTISSVQAEDLAVYYCKQSYNLPWTFGGGTKLEIKR
notes: No sentence ties the name TA003 to these numbers directly; also called the cloned Fab'; purified Fab' protein (cloned V-regions from the hybridoma producing mAb 1379)

Kd [1]: 6.55 nM
koff [2]: 0.00296 s⁻¹
B5: TA10 reference Fab' (Fab, V domains shown)
VH: B4 VH with A120S
VL: DIVMSQSPSSLAVSAGEKVTMSCKSSQSLLNSRTRKNYLAWYQQKPGQSPKLLIYWASTRESGVPDRFTGSGSGTDFTLTISSVQAEDLAVYYCKQSYNLPWTFGQGTKLEIK

Further lines, the binder ahead of its results:

B1: TA103-2 Fab' (Fab, V domains shown)
VH: B2 VH
VL: B2 VL with V29L, N34T, K35S
notes: as for B2
Kd [1]: 3.73 nM
koff [2]: 0.0028 s⁻¹

B6: Fab' derived from mAb 1379 by papain digestion (Fab, V domains shown)
VH: B4 VH
VL: B4 VL
notes: Papain fragment of the murine IgG1 kappa hybridoma antibody mAb 1379 (ATCC PTA-6230); also called murine Fab
EC50 (read off the curve) [5]: ~8 nM
EC50 (read off the curve) [6]: ~10 nM
EC50 (read off the curve) [7]: ~30 nM
